Laboratory results from patent publication US5821075.

Target: myelin basic protein, 32P-labeled on tyrosine residues

- dephosphorylation (radioactivity released as inorganic phosphate, percentage of total input): > 30%
B1: PTPL1 protein tyrosine phosphatase (enzyme)
chain: MVQPEQAPKVLNVVVDPQGRGAPEIKATTATSVCPSPFKMKPIGLQERRGSNVSLTLDMSSLGNIEPFVSIPTPREKVAMEYLQSASRILDKVQLRDVVASSHLLQSEFMEIPMNFVDPKEIDIPRHGTKNRYKTILPNPLSRVCLRPKNVTDSLSTYINANYIRGYSGKEKAFIATQGPMINTVDDFWQMVWQEDSPVIVMITKLKEKNEKCVLYWPEKRGIYGKVEVLVISVNECDNYTIRNLVLKQGSHTQHVSNYWYTSWPDHKTPDSAQPLLQLMLDVEEDRLASQGPRAVVVHCSAGIGRTGCFIATSIGCQQLKEEGVVDALSIVCQLRMDRGGMVQTSEQYEFVHHALCLYESRLSAETVQ
